Results reported in the DeepSol protein solubility set.

Experiment: soluble on expression in E. coli; label from the status in PepcDB or PDB records

Sequence	soluble on expression in E. coli
MTQKEISIIHPRPSSIVAALYTLRDLNVDVAILHGPPGCSFKHARLLEEDGIHVVTTGLDENGFVFGGHDRLVEVINKSIELFNPKILGVVGTCASMIIGEEMHDAVLEANPDIPVIEVEVHAGYHNNTRGVLFALESALDAGIIDRKEFERQEYLEHHHHHH	soluble
MWRTRVVHTTGYVYQSPVTASYNEARLTPRSSSRQNLVLNRVETIPATRSYRYIDYWGTAVTAFDLHAPHTELTVTSSSVVETERPEPLAAKATWADLQSTAVIDRFDEVLRPTPHTPASARVDAVGRRIRKCHEPSEAVVAAARWARSELDYIPGTTSVHSSGLDALEQGKGVCQDFVHLSLMVLRSMGIPCRYVSGYLHPKRDAVVGKTVDGRSHAWVQAWTGGWWHYDPTNDNEITEQYISVGVGRDYTDVSPLKGIYSGEGVTDLDVVVEITRLA	soluble
MSANSKDRNQSNQDAKRQQQNFPKKISEGEADLYLDQYNFTTTAAIVSSVDRKIFVLLRDGRMLFGVLRTFDQYANLILQDCVERIYFSEENKYAEEDRGIFMIRGENVVMLGEVDIDKEDQPLEAMERIPFKEAWLTKQKNDEKRFKEETHKGKKMARHGIVYDFHKSDMY	not soluble
MNPYQAHRIKKLKYQLENAESYEEWKSTALQLDEETGLQEWKYDNCSAYFDAELISYRLNLLRKYRLQQRVMDSVYLLQEGLTHDIANIGHPMLFAATYVGTKQIIEDYIEEVSLSLAFIAASQCQTLTVAEKLKFFKNCQKTYGLEHHHHHH	not soluble
MSLKSDNDVVITGVGIVTCHGVGSQAHVALLSGAAVPEPVVETEKFKPYPVHPMPEIDWSAQIAKRGDQRQMENWQRLGVFAAGLALDDAGLKENTEACATMDMIVAAGGGERDINVDTLIVDEALKRNDREKLLNEKLTTELRPTLFLAQLSNLMAGNISIVHKVTGSSRTFMGEEAAGISAVETAFHRIRSGESSHALVGGAFSAERPDMILLFEAIGAHAQGGWQPLWSRGDQDGGGMISGSLGAFLVLESRKHASERGARIYARIDAIEGDRGSRDDGKMEKRMERLLAPAKDSAATVVFSGASGYDEVTVREKDILEKVLPNSVIRGFGGVTGHGLEAQFPLGLALAALTLESGAKVPTFDAAAEKPMGEAATEAVVTTVGHVRGEGVAVLSRDVEGHHHHHH	soluble
MGSDKIHHHHHHMTALVCLTGSSCTDDENNGQGNNIIYGENIIGNGEQTFEIKDHQYLKRGTYLMKGWCYVTYGSTLTIEAGTVIKGDKETRAALIVEPGGKLIARGTVDAPIVFTSEMPAGKRKPGDWGGLILCGYARNNEDIMQIEGGPRTMHGGPNNADNSGVLSYVRVEFAGYPFKKNQEINGITFGSVGNGTQIDHLQVSYANDDAFEWFGGTVHAEYLVAYHCWDDDFDIDNGYSGTCRHLLGIRHPRIADITGSHAFECSNNGTNTPATPTTAATFEDVTIYGPASGDASFVNHPDFINGGGLRPENESMLGLFGAALYMGNNTSVTFRNCRISGYPSDMEGTPASADNVVFSEREETGYPEWTQGWCNFNPQETEY	not soluble
MTQDDFFDLTPVEDFDSYDPLADTEDEEFDLEAPAESGMFLVEPGEFPTVDELASQAEALQQAPAAQRIATLFDHMERSRKILLGILEMCDGQVQPNELVISRIEKLKANNKSVYTPDNMCMMLVRAGALRRVTQDGTDYEDIEDTLEPKRVVIDGVEYLEPVQAPQICWLTTPEGSQVVAADQPRARLRELLENEPQYRHVFRTVLEMCAPDGGTTQKALSAALDNDPALMHPRMYAMRFAERLAQNDALEWRDNAWRITDIGSEGLDIIAELDAAEQADD	not soluble
MTTTLKAIVRKPRTDGLYAVYIRIVHNRKPGYIKTNKIVDADHISKDNEPTDPVVNEYCSMLVRQYTDRLNRANTTLWSVSEIIEYLLKTDEEVCFSDYSRMFIRQMRLDGHERNAKNYQLAVAHLERYMGTTRVMFGHLTAAVLKKWIESLSKTHRAKEMYPTNVRMIFRSAIADMNDDEKGIQRIKFDPWVKVQIPKSEPSEKLAISAEECREFFNRPLPRTKMLSSLPELGRDVALLSLCLGGINTVDLYNLKKSDYHDGIIGYKRAKTKHSRKDEAYIEMRVEPFIQDTFNKYLSEEEDEFLFTFHQRYGNTDSFNANVNIGIRKICMDMGMTNKEDFYCFYTFRHTWATIAQNDCNANLYEVAFGMNHSHGFKVTRGYVKVDFTPAWALNARIIDFIFFSNKPSKQGLAKDLDESGDKMFRISAKMMIYARAYFKGEVIAEFTDIGFNNVDEVLSRIVKMFPKDIPVGCTVQIRLTNCDNHKEVVYERSKGKGF	not soluble
MSLIVKFCGFKTESDIKKIKKLEVDAVGFIHYPDSKRHVSLKQLKYLAKIVPDHIEKVVVVVNPQMSTIKRIINQTDINTIQLHGNESIQLIRNIKKLNSKIRIIKAIPATRNLNNNIQKYKDEIDMFIIDTPSITYGGTGQSFDWKLLKKIKGVDFLIAGGLDFEKIKRLEIYSFGQCGYDISTGIESHNEKDFNKMTRILKFLKGDEGHHHHHH	not soluble
MSSLKGKRIGFGLTGSHCTYEAVFPQIEELVNEGAEVRPVVTFNVKSTNTRFGEGAEWVKKIEDLTGYEAIDSIVKAEPLGPKLPLDCMVIAPLTGNSMSKLANAMTDSPVLMAAKATIRNNRPVVLGISTNDALGLNGTNLMRLMSTKNIFFIPFGQDDPFKKPNSMVAKMDLLPQTIEKALMHQQLQPILVENYQGNDLEHHHHHH	not soluble
MGTMHTSELLKHIYDINLSYLLLAQRLIVQDKASAMFRLGINEEMANTLGALTLPQMVKLAETNQLVCHFRFDDHQTITRLTQDSRVDDLQQIHTGIMLSTRLLNEVDDTARKKRA	not soluble
MKSILEQLSSMTVVVADTGDLDSIKKFQPRDATTNPSLILAAAKNPDYVKLIDKAIESSENTLPNGFSEIELIKETVDQVSVFFGKEILKIISGRVSTEVDARLSFDTEATVKKARKLINLYKNFGIEKERILIKIAATWEGIKAAEILEKEGIKCNLTLLFNFCQAVTCANANITLISPFVGRILDWHKAKTGKTSFIGAEDPGVISVTQIYKYFKEKGFKTEVMGASFRNLDEIKELAGCDLLTIAPKFLEELKREKGVLIRKLDASTKINNSIDYKFEEKDFRLSMLEDQMASEKLSEGITGFSKAIEELEELLIERLSEMKNHKLISAN	soluble
MVVGWHRPTRLHIDTQAITENVQKECQRLPEGTALFAVVKANGYGHGAVESAKAAKKGGATGFCVALLDEAIELREAGVQDPILILSVVDLAYVPLLIQYDLSVTVATQEWLEAALQQLTPESNTPLRVHLKVDTGMGRIGFLTPEETKQAVRFVQSHKEFLWEGIFTHFSTADEIDTSYFEKQAGRFKAVLAVLEELPRYVHVSNSATALWHPDVPGNMIRYGVAMYGLNPSGNKLAPSYALKPALRLTSELIHVKRLAAGEGIGYGETYVTEAEEWIGTVPIGYADGWLRHLQGFTVLVNGKRCEIVGRVCMDQCMIRLAEEVPVGPVVTLVGKDGNEENTLQMVAEKLETIHYEVACTFSQRIPREYN	soluble
MNQPIELSLEQQFSIRSFATQVQNMSHDQAKDFLVKLYEQMVVREATYQELLKHQWGLDSGSTPA	soluble
MVKIRLARFGSKHNPHYRIVVTDARRKRDGKYIEKIGYYDPRKTTPDWLKVDVERARYWLSVGAQPTDTARRLLRQAGVFRQEAREGA	soluble
GAMGSIQENLIFPMDNPKGIDGFTNLKEKDIATNENKLLRTITADKMIPAFLITPISSQIAGKVIAQVESDIFAHMGKAVLIPKGSKVIGYYSNNNKMGEYRLDIVWSRIITPHGINIMLTNAKGADIKGYNGLVGELIERNFQRYGVPLLLSTLTNGLLIGITSALNNRGNKEGATNFFGDYLLMQLMRQSGMGINQVVNQILRDKSKIAPIVVIREGSRVFISPNTDIFFPIPRENEVIAEFLK	soluble
MGSDKIHHHHHHMFENEILFDNGQHKFMFLGWEEKEEEIVQTNQYLILDGNEGILLDPGGAHVFPRVMSNVAEVVDLSSIRHIFYTHQDPDVTSGILLWLSICENAKIYISSLWVRFLPHFGIYDQKRIVPISDKGTKIKLLSGNELEILPAHFLHSTGNFVLYDPVAKILFSGDIGAAVFEKGKRYRYVDDFERHLPLMEAFHKRYMSSNAACKKWVDMVSKKKIDMIAPQHGAVFRGESVKKFLEWFRNLKCGVDLIDNLYSL	not soluble
MGSDKIHHHHHHMKEISVVLVGIGGYGNKYVEYILREGREKGVRISGVVDPYPQNSRFYDELRSLNVPMYNTLEEFYSHHTADLAIISSPIHYHCEQTCTAVRNGSHVLCEKPAAATVKEVKKMIECREKYGKIVAIGYQWSYNPAVLKLKEDILAGKFGKPVLFKTLVLWPRDTAYYRRNSWAGKLKVNNRWVLDSVAGNATAHFLHNMLFLLGEKMEESAYPESMVAELYRANDIESFDTCALKMTVRKIPVLFFATHAVKERKGPVFEYRFEKARVICNYPEYPESEENLLVVYEDGRKEIYGPTDHGSMRKLWVVVDAARGRKEFICTLESAMAHTIAINGAHVSMKEIQDFPTELKRVEGEPPMIWVEGLKEAMERAYEEEKIFSELNLPWAKRGEEVKLENFEGLEGEITC	not soluble
MSLTNHEQVLTDYLAAFIEELVQAGVKEAIISPGSRSTPLALMMAEHPILKIYVDVDERSAGFFALGLAKASKRPVVLLCTSGTAAANYFPAVAEANLSQIPLIVLTADRPHELRNVGAPQAMDQLHLYGSHVKDFTDMALPENSEEMLRYAKWHGSRAVDIAMKTPRGPVHLNFPLREPLVPILEPSPFTATGKKHHHVHIYYTHEVLDDSSIQKMVTECTGKKGVFVVGPIDKKELEQPMVDLAKKLGWPILADPLSGLRSYGALDEVVIDQYDAFLKEAEIIDKLTPEVVIRFGSMPVSKPLKNWLEQLSDIRFYVVDPGAAWKDPIKAVTDMIHCDERFLLDIMQQNMPDDAKDAAWLNGWTSYNKVAREIVLAEMANTTILEEGKIVAELRRLLPDKAGLFIGNSMPIRDVDTYFSQIDKKIKMLANRGANGIDGVVSSALGASVVFQPMFLLIGDLSFYHDMNGLLMAKKYKMNLTIVIVNNDGGGIFSFLPQANEPKYFESLFGTSTELDFRFAAAFYDADYHEAKSVDELEEAIDKASYHKGLDIIEVKTNRHENKANHQALWVKIADALKALDEGHHHHHH	soluble
MSDEVPEILLAHYLKTLKLPTFQREYQKLARLCATEGVDHVEYLLRLSEREMIERDRRKVERRIKAARFPVVKSLDSFDFAAIPKLNKMQVLELARCEWIERRENVIALGPSGTGKTHVALGLGLAACQKGLSVGFTTAAALVSEMMEARDERRLLRFQKQMAAYQLLIIDELGFVPLSKTGAELLFELISQRYERGATLITSNLPFDEWTETLGSERLTGALLDRITHHVNILEMNGDSYRLAQSRARKAGAAALEHHHHHH	soluble
DNAVGPPASAPPPPSVPVAKALSRTLAPTAEFTGFLAAPETVELRSRVGGTLDAISVPEGRLVSRGQLLFQIDPRPFEVALDTAVAQLRQAEVLARQAQADFDRIQRLVASGAVSRKNADDVTATRNARQAQMQSAKAAVAAARLELSWTRITAPIAGRVDRILVTRGNLVSGGVAGNATLLTTIVSHNPMYVYFDIDEATWLKALRHTRSDKNPPVVNMGLTTDNGLPYQGVLDFMGNQMNRSTGTIRARAVIPDPDGMLSPGLFARISLPIGEPRETVLIDDLAVSADQGKNYVLIVGKENQVEYRPVELGQMVD	not soluble
AIALVSHGAIVKSAPKHWNGSKCPIRMQVRVPDPDRRSLLRAGAHIILGGLLATVIPGTSPSIAKIREKPTDKGEEAPKIDDEKELDKYVSGLKYEEELYENPDPAEKEVYRTPRVEREPEYKKKEDEILEKESKVLKEEAREAARESEVLRQEFEKR	soluble
